From patent US20080213284A1

Columns and labels:
[1] = biological target: receptor on VERO E6 cells (not identified in the filing); experiment: flow cytometry on VERO E6 cells, FITC anti-human IgG Fc
[2] = biological target: receptors in NIH 3T3 cells (not identified in the filing); experiment: flow cytometry on NIH 3T3 cells, FITC anti-human IgG Fc
[3] = biological target: receptor on VERO E6 cells (not identified in the filing)

| Substance | concentration at which it bound [1] | concentration at which it bound [2] | avidity [3] |
| --- | --- | --- | --- |
| S1-Fc fusion protein (from UniProt P59594 14-333) | 1 µg/mL |  |  |
| S3-Fc fusion protein (from UniProt P59594 667-999) |  | 0.1 µg/mL |  |
| S2-Fc fusion protein (from UniProt P59594 334-666) | 0.1 µg/mL | 1 µg/mL | 1 µM |
